This assay has as its target epidermal growth factor receptor (EGFR) on A431 human epidermoid cells (human) (UniProt P00533). The assay can be described thus: cell-based or functional assay.

In the case of “streptavidin-TGF-α fusion protein (ST-TGF) (from UniProt P22629 40-157; P01135 40-89)”, the mean fluorescence activity (biotin-β-galactosidase delivered into each A431 cell, FACS) stood at 214; the positive cells (delivery of biotin-β-galactosidase into A431 cells, staining and FACS) is over 99%.

(Values after US20090098148A1.)
